Series [1] concerns chymotrypsin. In words: In vitro enzyme (chymotrypsin) resistance, IN105 and Zn IN105 complexes. The class given is in vitro ADME. Conditions: 37° C., 0.6 mg/ml protein. Here is the method:
(§1) This sample serves as T=0. […] The half life was calculated using the equation: t1/2:=−0.693/slope.

Series [2] relates to chymotrypsin. The experiment in a line: In vitro enzyme (chymotrypsin) resistance, HIM2 and Zn HIM2 complexes. The class given is in vitro ADME. Conditions: 37° C., 0.3 mg/mL protein. Here is the method: as §1

Regarding “IN105 (R-type zinc complex): R-type Zn complex of IN105, 1.85% w/w zinc, 2.37% w/w phenol (as reaction 9.6.1)”, in the series on chymotrypsin [1], the T half is 55.3 min.

Regarding “HIM2 (R-type zinc complex): R-type Zn complex of HIM2, 1.1% w/w zinc, 0.1 to 0.25% w/w phenol”, the T half in the series with chymotrypsin [2] is 19 to 21 min.
